Data reported in publication PMC12125310.
Where two headings read alike, the source gives them in different places.

T1: DOF6 (Col-0) (Arabidopsis thaliana (Col-0), UniProt Q9M1E6 1-245)
T1 sequence: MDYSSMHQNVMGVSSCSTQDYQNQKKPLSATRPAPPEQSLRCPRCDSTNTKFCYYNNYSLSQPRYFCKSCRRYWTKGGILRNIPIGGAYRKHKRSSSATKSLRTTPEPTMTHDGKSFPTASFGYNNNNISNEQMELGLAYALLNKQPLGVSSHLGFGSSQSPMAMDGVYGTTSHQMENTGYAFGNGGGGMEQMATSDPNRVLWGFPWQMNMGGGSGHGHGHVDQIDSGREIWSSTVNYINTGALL

T2: RGL2 (Col) (Arabidopsis thaliana (Col-0), UniProt Q8GXW1 1-547)
T2 sequence: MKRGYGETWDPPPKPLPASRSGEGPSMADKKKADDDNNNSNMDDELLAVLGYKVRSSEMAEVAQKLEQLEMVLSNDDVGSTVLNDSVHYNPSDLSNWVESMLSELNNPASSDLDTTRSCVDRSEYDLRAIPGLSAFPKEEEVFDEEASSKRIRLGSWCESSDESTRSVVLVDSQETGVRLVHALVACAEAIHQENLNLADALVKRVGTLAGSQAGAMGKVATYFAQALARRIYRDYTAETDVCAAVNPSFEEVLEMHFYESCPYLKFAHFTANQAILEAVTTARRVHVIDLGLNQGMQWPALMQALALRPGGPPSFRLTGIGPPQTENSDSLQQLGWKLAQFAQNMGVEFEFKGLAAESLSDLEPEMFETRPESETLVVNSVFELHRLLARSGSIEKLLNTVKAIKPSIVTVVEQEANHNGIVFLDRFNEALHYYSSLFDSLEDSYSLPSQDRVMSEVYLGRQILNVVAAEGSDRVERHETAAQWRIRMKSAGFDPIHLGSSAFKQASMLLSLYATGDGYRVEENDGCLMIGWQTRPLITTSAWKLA

T3: DOF6 (Col-0);RGL2 (Col) (Arabidopsis thaliana …, UniProt Q9M1E6;Q8GXW1 1-245;1-547, |)
T3 sequence 1: T1 sequence
T3 sequence 2: T2 sequence

B1: GA20ox3 Col probe (P8) (dsDNA)
DNA 1: TAAAAAATAAAAATGAAAAGTATCATGATA
DNA 2: TATCATGATACTTTTCATTTTTATTTTTTA
B2: GA20ox3 Tib probe (dsDNA)
DNA 1: TTTAAAAATAAAATAAAAAGTATCATGATA
DNA 2: TATCATGATACTTTTTATTTTATTTTTAAA

Assays:
Assay in all cases: EMSA
DOF6 (Col-0) = target: T1, DOF6 (Col-0)
RGL2 (Col) = target: T2, RGL2 (Col)
DOF6 (Col-0);RGL2 (Col) [1] = target: T3, DOF6 (Col-0);RGL2 (Col)
DOF6 (Col-0);RGL2 (Col) [2] = target: T3, DOF6 (Col-0);RGL2 (Col); remark: listed apart in the source

Binder	binding result (DOF6 (Col-0))	binding result (RGL2 (Col))	binding result (DOF6 (Col-0);RGL2 (Col) [1])	binding result (DOF6 (Col-0);RGL2 (Col) [2])
B1	binds	no binding	binds	
B2	binds			binds
